Assay results from the supplement of paper PMC12042874.
± gives the uncertainty stated by the source.

Assay: amyloid nucleation score (Sup35N fusion, yeast selection) (log enrichment); library NNK1; higher = more nucleation; inactive = no reads after selection
Summary of the method: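 Using DiMSum, nucleation scores were taken as the log enrichment of output over input reads, centred on the mode score of non-aggregating sequences. The input and output reads came from Illumina sequencing of plasmid inserts, with sequences under 100 input reads excluded. The yeast were psi-negative, expressed Sup35N fused to peptides of 20 random codons, were induced with 100 μM copper sulfate for 24 hours, and were grown 7 days at 30°C on medium lacking adenine and uracil.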

| Substance | amyloid nucleation score |
| --- | --- |
| IMAFNDRDHG | -0.093 ± 0.21 |
| IMGVDVLGYTLDPVGDCNVF | 0.412 ± 0.73 |
| IMHQYRRGYDRDLNWNRMFR | 0.035 ± 0.72 |
| IMLANVSLLVRNHGRY | 3.02 ± 0.16 |
| IMLQCYIVFCFRGRSLIRKA | -0.524 ± 0.36 |
| IMNMIA | 0.455 ± 0.48 |
| IMRSMSGWFGFVMLFDAS | -0.598 ± 0.79 |
| IMRYLGVKKVE | -0.245 ± 0.4 |
| IMSYLKTLSPVIAMRTIERP | 0.821 ± 0.5 |
| INDRVDGSVIEMSLCRYG | 1.19 ± 0.8 |
| INIVVMGMAGRRQGVPVACV | 1.59 ± 0.72 |
| INKNCTANEP | -0.067 ± 0.23 |
| INNTLNI | 0.793 ± 0.47 |
| INTSR | 0.038 ± 0.23 |
| IPLGPGLPACINEGLKNPVS | -0.439 ± 0.67 |
| IPMLFMSLRV | 0.171 ± 0.26 |
| IPMPMLRRKKTGYLLSTGSA | 0.532 ± 0.49 |
| IPPCWLTGLFNQYMNWTRS | -0.134 ± 0.31 |
| IQFPRLGGDTTVCDYGHVAI | 1.32 ± 0.49 |
| IQPLIWANYFVIGARV | 3.66 ± 0.1 |
| IQSFAMLMQVCLIAHLYRRL | 0.108 ± 1 |
| IRFKRFGADAHGNKYNSRWI | 1.13 ± 0.32 |

| Substance | amyloid nucleation score |
| --- | --- |
| IRHIRPFFNVKDI | -0.006 ± 0.37 |
| IRIFNKHGHGG | -0.664 ± 0.36 |
| IRKRDFGYKSLFPNGTAMIH | -0.83 ± 0.88 |
| IRLRPERDLGVAWLCIGCKR | -0.314 ± 1.2 |
| IRMVL | 0.697 ± 0.44 |
| IRRAENLFIRYSHR | 0.855 ± 0.58 |
| IRRSHSEVPVVA | 0.22 ± 0.37 |
| IRRSIGVRAPWTFSEEDGSS | 0.6 ± 0.79 |
| IRRYLSCPYNISIVYSENIV | -0.185 ± 0.71 |
| IRTKILLLHKNQKTVVKGLG | 0.073 ± 1.5 |
| ISAMSVW | -0.031 ± 0.74 |
| ISATCL | 0.858 ± 0.76 |
| ISCRFAMVLGLKSWILTYV | inactive |
| ISFSSYYNLVLDYLELSQCL | inactive |
| ISGMRGFILLGRRVFTKVSS | -0.277 ± 0.33 |
| ISHNQIWVRIGISRLFQHKV | 2 ± 0.35 |
| ISKSFWTRGECCRK | 0.368 ± 0.39 |
| ISMTDYVPSMHYAQTRVHLN | -0.085 ± 0.78 |
| ISPLSQYARLVRQVSRAWYD | 0.569 ± 0.87 |
| ISVCFWSIKYRSWAILMPKG | 0.077 ± 0.58 |
| ISYRGSFHTNMWTCILRTAK | 0.082 ± 0.42 |
| ITCSHPQRMLVCSCKSPWCF | 3.31 ± 0.13 |

| Substance | amyloid nucleation score |
| --- | --- |
| ITFIVAGI | -0.113 ± 0.21 |
| ITLIGQHRFLLVFSTNQLNH | 0.46 ± 0.3 |
| ITNFMGGIRVYRCDASMKGG | 0.395 ± 0.28 |
| ITVSKKATWCRQRGMRGLRG | 1.65 ± 0.59 |
| ITYINLSSSYKIPRPTHMRI | 6.07 ± 0.065 |
| ITYIRHYCKPVVL | 5.65 ± 0.11 |
| IVASSISAQVSLLYRALCIY | 3.69 ± 0.16 |
| IVASYRYNYMYDLHLLSALQ | inactive |
| IVDSVRGKGVY | 1.14 ± 0.79 |
| IVGIVT | 1.04 ± 0.35 |
| IVGST | -0.894 ± 0.47 |
| IVGVEGLKPIKAPLLLNRSV | inactive |
| IVLKVIINVCHYLTGGSTFA | 6.475 ± 0.062 |
| IVQTHYN | -0.817 ± 1.7 |
| IVRVEWFSHYSFVFNGIDGG | 0.679 ± 0.54 |
| IVVNIYVRWYPVGTGWDYLT | inactive |
| IVVSQPVFEGYIWLLNVAGG | 4.42 ± 0.094 |
| IVWFCINDTASVVLKTLLSH | 1.36 ± 0.78 |
| IVWYELIESNVLKSKGCVVN | -0.322 ± 1.1 |
| IVYLSCFVRCP | 0.379 ± 0.56 |
| IWCSVNEWQYRVKVV | 0.03 ± 0.5 |
| IWDSVLF | 1.57 ± 0.33 |

| Substance | amyloid nucleation score |
| --- | --- |
| IWGKC | -0.644 ± 0.76 |
| IWLSFKDLCKVRICSS | 0.803 ± 0.59 |
| IWMIAQDGFNFQLSNR | 0.282 ± 0.31 |
| IWSSVQEFLGCMFWVIRINH | 1.77 ± 0.45 |
| IWVHHRSVTKSWLKMVAWNH | -0.514 ± 0.43 |
| IYCSCPSKQE | -0.075 ± 0.24 |
| IYIGLLYVLCIGLASMCLTS | 0.199 ± 0.84 |
| IYPRMCLRGFAACV | 2.91 ± 0.13 |
| IYRDGIGTDIWFRGSICKCL | 0.704 ± 0.61 |
| IYRFGFRACVDPGLRIV | inactive |
| IYVLYQIERSVK | -0.154 ± 0.58 |
| IYWSP | 0.569 ± 0.26 |
| IYYTSWYINAYLCGHMPVRG | 2.52 ± 0.23 |
| KACFPLI | 0.631 ± 0.45 |
| KADIFYSLCFLRVEG | -0.338 ± 0.79 |
| KADQCLSWDS | -0.717 ± 0.97 |
| KAPCDFSGFCRCRVTGPSHC | 0.412 ± 0.33 |
| KCDRHLKSYWSKELHYYYNF | -0.894 ± 0.38 |
| KCGRVWHVFFVVSYQGVGST | 1.31 ± 0.46 |
| KCLSLNCMPYTFLLSRYYPY | inactive |
